Nine molecules from patent US20220332824A1 (NANJING GENSCRIPT BIOTECH, published 2022) can be followed below.

This assay addresses T1, human PD-1 (human, UniProt Q15116 25-288).
T1 construct: whole, on cells; also called PD-1 antigen
Nature of the assay: flow cytometry on CHO-K1 cells expressing PD-1. As for the experimental part: For the constructed series of bispecific antibodies, the affinity of these samples with antigens was measured by using a flow cytometer. […] Then, an antibody-antigen binding curve was generated based on the geometric mean, raw data of four parameters was plotted by using the […] Prism V6.02 software, and a best fitted value program was compiled to analyze EC₅₀.

Substitutions are numbered along the chain they refer to.

T1 sequence (Q15116 25-288): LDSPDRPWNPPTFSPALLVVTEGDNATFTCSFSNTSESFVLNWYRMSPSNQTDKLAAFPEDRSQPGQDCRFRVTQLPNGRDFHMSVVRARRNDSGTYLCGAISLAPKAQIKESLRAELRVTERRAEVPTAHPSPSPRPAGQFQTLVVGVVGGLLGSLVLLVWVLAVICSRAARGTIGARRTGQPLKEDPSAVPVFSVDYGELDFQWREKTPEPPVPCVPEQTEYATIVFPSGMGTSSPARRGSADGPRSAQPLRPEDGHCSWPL

B1: bispecific antibody PD1a-E-LN (bispecific antibody, human IgG4 S228P, kappa)
heavy: not shown
light: EVQLVESGGGLVQPGGSLRLSCAVSGNIYNRNFMGWFRQAPGKGREGVSAIYTGTSRTYYADSVKGRFTISRDNAKNTVYLQMNSLRPEDTAVYYCAADLRDGFWDTGVWNTWGQGTLVTVSSEPKSSDKTHTSPPSPEIVLTQSPATLSLSPGERATLSCRASENVGTYISWYQQKPGQAPRLLIYGASNRYTGIPARFSGSGSGTDFTLTISSLEPEDFAVYYCGESYGHLYTFGGGTKVEIKRTVAAPSVFIFPPSDEQLKSGTASVVCLLNNFYPREAKVQWKVDNALQSGNSQESVTEQDSKDSTYSLSSTLTLSKADYEKHKVYACEVTHQGLSSPVTKSFNRGEC
notes: PD1a sdAb fused by the E-linker to the N-terminus of light chain L0; also called L3 + H0
For B1, the binding result was “binds”.

B2: bispecific antibody PD1b-E-LN (bispecific antibody, human IgG4 S228P, kappa)
heavy: not shown
light: B1 light with R45L, A75S, P88A, D102E
notes: PD1b sdAb fused by the E-linker to the N-terminus of light chain L0; also called L4 + H0
For B2, the binding result was “binds”.

B3: bispecific antibody PD1a-E-HN (bispecific antibody, human IgG4 S228P, kappa)
heavy: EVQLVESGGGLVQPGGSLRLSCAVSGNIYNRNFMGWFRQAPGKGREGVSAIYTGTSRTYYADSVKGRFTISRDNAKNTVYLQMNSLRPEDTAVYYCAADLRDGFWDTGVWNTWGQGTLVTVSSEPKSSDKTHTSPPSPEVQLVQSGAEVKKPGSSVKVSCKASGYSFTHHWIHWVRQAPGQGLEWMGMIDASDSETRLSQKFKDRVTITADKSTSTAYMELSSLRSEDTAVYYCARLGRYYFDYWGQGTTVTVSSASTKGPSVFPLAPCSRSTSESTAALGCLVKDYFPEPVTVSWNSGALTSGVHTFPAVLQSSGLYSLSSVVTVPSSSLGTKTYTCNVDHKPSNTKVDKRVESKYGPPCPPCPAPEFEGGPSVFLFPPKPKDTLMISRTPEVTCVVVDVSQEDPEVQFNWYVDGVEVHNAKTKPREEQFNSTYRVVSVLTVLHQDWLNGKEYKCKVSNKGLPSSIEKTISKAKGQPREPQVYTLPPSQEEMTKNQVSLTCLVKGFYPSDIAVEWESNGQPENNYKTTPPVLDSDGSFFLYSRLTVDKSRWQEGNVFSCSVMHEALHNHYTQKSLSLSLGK
light: EIVLTQSPATLSLSPGERATLSCRASENVGTYISWYQQKPGQAPRLLIYGASNRYTGIPARFSGSGSGTDFTLTISSLEPEDFAVYYCGESYGHLYTFGGGTKVEIKRTVAAPSVFIFPPSDEQLKSGTASVVCLLNNFYPREAKVQWKVDNALQSGNSQESVTEQDSKDSTYSLSSTLTLSKADYEKHKVYACEVTHQGLSSPVTKSFNRGEC
notes: PD1a sdAb fused by the E-linker to the N-terminus of heavy chain H0; also called H3 + L0
Regarding B3, the binding result is reported as “binds”.

B4: bispecific antibody PD1a-E-HC (bispecific antibody, human IgG4 S228P, kappa)
heavy: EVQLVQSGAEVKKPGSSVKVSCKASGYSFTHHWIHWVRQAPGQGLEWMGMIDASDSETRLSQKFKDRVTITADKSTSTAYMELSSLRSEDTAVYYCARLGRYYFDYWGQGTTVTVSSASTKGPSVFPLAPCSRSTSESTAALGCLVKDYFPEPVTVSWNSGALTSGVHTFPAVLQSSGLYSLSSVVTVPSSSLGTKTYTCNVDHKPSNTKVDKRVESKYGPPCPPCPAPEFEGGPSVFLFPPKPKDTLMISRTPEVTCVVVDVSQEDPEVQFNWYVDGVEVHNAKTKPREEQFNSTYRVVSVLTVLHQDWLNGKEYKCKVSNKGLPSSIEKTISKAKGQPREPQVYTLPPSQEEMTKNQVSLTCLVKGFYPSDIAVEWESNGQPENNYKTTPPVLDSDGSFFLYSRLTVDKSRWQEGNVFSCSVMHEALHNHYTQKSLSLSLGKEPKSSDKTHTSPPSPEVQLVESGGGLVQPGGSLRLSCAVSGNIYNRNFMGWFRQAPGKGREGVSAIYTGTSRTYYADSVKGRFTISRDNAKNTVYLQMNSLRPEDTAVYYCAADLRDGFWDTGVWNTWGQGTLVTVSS
light: B3 light
notes: PD1a sdAb fused by the E-linker to the C-terminus of heavy chain H0; also called H1 + L0
As for B4, the binding result is given as “binds”.

B5: bispecific antibody PD1a-G15-HC (bispecific antibody, human IgG4 S228P, kappa)
heavy: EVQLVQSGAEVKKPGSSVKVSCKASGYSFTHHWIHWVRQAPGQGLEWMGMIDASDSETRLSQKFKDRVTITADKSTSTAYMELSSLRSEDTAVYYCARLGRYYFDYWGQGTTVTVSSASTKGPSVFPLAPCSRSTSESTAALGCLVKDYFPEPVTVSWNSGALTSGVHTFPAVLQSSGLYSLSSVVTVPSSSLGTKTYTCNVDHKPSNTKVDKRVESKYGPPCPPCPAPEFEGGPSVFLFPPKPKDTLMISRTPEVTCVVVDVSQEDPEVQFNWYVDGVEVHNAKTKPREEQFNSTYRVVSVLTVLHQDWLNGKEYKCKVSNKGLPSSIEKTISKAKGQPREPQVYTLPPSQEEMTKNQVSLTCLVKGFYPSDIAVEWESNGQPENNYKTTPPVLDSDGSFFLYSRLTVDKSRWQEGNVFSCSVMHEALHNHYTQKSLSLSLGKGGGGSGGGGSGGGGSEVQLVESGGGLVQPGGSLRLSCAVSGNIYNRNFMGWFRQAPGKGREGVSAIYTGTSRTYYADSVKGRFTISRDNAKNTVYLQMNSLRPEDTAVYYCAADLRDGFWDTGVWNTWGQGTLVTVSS
light: B3 light
notes: PD1a sdAb fused by the G15-linker to the C-terminus of heavy chain H0; also called H5 + L0
Regarding B5, the binding result is listed as “binds”.

B6: bispecific antibody PD1b-E-HC (bispecific antibody, human IgG4 S228P, kappa)
heavy: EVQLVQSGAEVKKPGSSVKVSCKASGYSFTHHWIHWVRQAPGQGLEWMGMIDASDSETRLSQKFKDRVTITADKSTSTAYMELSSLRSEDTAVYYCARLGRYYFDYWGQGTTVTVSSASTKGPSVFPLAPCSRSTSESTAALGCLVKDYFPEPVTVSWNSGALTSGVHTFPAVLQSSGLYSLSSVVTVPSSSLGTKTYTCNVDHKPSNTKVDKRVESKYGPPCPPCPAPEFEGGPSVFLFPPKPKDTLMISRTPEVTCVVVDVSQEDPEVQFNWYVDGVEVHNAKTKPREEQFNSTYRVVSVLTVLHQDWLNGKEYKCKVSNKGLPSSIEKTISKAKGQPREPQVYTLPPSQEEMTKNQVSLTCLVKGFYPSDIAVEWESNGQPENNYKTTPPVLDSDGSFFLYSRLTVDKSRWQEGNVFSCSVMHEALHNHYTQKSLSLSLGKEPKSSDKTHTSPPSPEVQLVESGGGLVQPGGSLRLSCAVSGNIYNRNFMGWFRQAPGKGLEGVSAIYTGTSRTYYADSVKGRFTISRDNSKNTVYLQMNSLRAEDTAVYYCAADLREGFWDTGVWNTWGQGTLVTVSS
light: B3 light
notes: PD1b sdAb fused by the E-linker to the C-terminus of heavy chain H0; also called H2 + L0
Take B6: the binding result is recorded as “binds”.

B7: bispecific antibody PD1b-E-HN (bispecific antibody, human IgG4 S228P, kappa)
heavy: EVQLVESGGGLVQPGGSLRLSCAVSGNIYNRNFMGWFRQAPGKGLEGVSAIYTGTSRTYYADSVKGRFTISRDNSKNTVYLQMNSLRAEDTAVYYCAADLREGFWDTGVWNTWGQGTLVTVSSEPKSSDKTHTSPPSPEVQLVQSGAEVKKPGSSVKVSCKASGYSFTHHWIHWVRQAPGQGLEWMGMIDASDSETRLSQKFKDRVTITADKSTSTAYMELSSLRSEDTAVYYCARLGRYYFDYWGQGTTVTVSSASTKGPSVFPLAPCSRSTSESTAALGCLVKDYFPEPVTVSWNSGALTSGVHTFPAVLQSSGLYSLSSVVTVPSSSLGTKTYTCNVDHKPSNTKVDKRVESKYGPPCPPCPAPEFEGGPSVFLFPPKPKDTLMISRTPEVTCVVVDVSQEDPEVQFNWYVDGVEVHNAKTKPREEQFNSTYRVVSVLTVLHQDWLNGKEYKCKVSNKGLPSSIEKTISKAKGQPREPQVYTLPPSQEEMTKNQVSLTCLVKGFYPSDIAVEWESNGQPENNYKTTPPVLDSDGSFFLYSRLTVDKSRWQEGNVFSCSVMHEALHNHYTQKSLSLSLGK
light: B3 light
notes: PD1b sdAb fused by the E-linker to the N-terminus of heavy chain H0; also called H4 + L0
On to B7, for which the binding result is “binds”.

B8: bispecific antibody PD1a-E-LC (bispecific antibody, human IgG4 S228P, kappa)
heavy: not shown
light: EIVLTQSPATLSLSPGERATLSCRASENVGTYISWYQQKPGQAPRLLIYGASNRYTGIPARFSGSGSGTDFTLTISSLEPEDFAVYYCGESYGHLYTFGGGTKVEIKRTVAAPSVFIFPPSDEQLKSGTASVVCLLNNFYPREAKVQWKVDNALQSGNSQESVTEQDSKDSTYSLSSTLTLSKADYEKHKVYACEVTHQGLSSPVTKSFNRGECEPKSSDKTHTSPPSPEVQLVESGGGLVQPGGSLRLSCAVSGNIYNRNFMGWFRQAPGKGREGVSAIYTGTSRTYYADSVKGRFTISRDNAKNTVYLQMNSLRPEDTAVYYCAADLRDGFWDTGVWNTWGQGTLVTVSS
notes: PD1a sdAb fused by the E-linker to the C-terminus of light chain L0; also called L1 + H0
For the molecule B8, the binding result is given as “binds”.

B9: bispecific antibody PD1b-E-LC (bispecific antibody, human IgG4 S228P, kappa)
heavy: not shown
light: B8 light with R274L, A304S, P317A, D331E
notes: PD1b sdAb fused by the E-linker to the C-terminus of light chain L0; also called L2 + H0
In the case of B9, the binding result is “binds”.
